Data on one substance can be found in patent US20120263644A1.

This assay has as its target leukocyte function antigen-1 (LFA-1), composed of CD11a and CD18, on human white blood cells (human) (UniProt P20701). In words: cell-based or functional assay.

Chain of leukocyte function antigen-1 (LFA-1), composed of CD11a and CD18, on human white blood cells (human) (P20701 26-1170, chain 1 of 2): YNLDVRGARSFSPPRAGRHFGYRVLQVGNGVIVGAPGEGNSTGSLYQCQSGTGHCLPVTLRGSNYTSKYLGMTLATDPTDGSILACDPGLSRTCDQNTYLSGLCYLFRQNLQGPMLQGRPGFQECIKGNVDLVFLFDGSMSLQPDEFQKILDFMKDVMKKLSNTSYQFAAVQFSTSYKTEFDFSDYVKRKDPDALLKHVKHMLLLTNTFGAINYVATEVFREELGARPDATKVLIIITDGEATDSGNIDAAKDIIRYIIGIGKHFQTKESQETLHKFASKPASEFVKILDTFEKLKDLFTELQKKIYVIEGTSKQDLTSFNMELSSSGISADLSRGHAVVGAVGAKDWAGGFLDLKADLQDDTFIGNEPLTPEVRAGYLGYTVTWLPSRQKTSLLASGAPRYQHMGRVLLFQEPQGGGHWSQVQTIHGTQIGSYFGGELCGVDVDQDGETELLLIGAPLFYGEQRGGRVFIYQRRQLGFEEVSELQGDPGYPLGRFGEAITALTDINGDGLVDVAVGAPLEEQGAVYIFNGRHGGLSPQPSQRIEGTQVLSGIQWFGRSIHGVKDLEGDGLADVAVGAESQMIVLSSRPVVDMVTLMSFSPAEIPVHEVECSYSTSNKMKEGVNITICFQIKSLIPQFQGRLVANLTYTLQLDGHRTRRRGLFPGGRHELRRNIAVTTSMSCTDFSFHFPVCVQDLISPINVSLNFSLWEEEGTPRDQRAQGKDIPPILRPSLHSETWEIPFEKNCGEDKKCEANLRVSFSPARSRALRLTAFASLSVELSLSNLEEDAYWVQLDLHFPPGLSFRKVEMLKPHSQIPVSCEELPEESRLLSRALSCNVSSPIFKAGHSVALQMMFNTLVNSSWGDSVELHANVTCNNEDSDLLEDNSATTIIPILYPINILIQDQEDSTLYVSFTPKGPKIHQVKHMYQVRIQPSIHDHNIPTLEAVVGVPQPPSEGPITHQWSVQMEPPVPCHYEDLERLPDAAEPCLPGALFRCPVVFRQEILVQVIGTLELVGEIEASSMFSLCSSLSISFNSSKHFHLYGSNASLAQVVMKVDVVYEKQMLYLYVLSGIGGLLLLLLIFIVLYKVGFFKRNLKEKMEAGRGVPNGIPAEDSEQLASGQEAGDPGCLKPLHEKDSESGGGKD
Chain of leukocyte function antigen-1 (LFA-1), composed of CD11a and CD18, on human white blood cells (human) (P05107 23-769, chain 2 of 2, further chain): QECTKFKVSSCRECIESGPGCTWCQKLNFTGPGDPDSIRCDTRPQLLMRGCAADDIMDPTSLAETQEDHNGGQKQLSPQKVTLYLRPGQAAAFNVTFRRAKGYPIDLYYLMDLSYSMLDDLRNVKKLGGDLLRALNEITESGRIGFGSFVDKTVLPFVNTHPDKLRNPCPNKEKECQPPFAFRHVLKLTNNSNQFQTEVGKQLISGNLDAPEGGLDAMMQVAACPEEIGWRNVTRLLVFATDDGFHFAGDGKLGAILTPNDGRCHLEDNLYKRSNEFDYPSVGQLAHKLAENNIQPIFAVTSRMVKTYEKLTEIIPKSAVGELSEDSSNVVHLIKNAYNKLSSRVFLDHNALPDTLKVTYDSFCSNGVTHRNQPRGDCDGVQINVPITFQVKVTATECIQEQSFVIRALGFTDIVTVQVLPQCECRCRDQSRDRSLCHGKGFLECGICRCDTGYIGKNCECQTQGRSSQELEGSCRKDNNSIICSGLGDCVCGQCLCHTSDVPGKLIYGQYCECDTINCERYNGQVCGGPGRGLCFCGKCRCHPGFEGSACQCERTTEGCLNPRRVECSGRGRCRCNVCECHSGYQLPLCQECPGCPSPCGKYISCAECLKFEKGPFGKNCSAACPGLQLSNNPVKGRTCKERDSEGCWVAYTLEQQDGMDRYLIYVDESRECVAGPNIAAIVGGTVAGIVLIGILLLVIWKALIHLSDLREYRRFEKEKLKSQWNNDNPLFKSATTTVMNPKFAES

“Efalizumab (RAPTIVA), anti-LFA-1 mAb (antibody)” yielded an IC50 of inhibition of proliferation of Jurkat cells (CellTiter Glo) of 5000 µg/mL.
